Residue numbers refer to the chain shown, from its start. In names and notes the source's numbering stands.
T1: cynomolgus monkey FcγRIIa2 extracellular domain, C-terminal His-tag (cynomolgus monkey)
T1 construct: also called cyno FcγRIIa2; cynoFcgRIIa2; not shown: His-tag added to C-terminus
T1 chain: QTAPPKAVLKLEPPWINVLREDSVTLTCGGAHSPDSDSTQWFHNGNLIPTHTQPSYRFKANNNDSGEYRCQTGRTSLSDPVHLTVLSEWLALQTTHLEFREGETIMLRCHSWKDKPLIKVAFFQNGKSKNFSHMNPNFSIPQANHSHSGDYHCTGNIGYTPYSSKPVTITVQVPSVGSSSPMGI

T2: cynomolgus monkey FcγRIIa3 extracellular domain, C-terminal His-tag (cynomolgus monkey)
T2 construct: also called cyno FcγRIIa3; cynoFcgRIIa3; not shown: His-tag added to C-terminus
T2 chain: T1 chain with K127I, N130K, H133P, Q142R

T3: cynomolgus monkey FcγRIIb extracellular domain, C-terminal His-tag (cynomolgus monkey)
T3 construct: also called cyno FcγRIIb; cynoFcγRIIb; not shown: His-tag added to C-terminus
T3 chain: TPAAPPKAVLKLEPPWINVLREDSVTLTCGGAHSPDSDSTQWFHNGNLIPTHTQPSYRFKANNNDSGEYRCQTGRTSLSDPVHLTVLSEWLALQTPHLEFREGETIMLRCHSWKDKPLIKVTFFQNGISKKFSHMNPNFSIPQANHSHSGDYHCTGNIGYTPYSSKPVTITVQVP

T4: cynomolgus monkey FcγRIIIaS extracellular domain with C-terminal His-tag (cynomolgus monkey, UniProt Q8SPW2 21-206 at identity 1.00))
T4 construct: Expressed in FreeStyle 293 cells and purified; also called cyno FcγRIIIaS; cynoFcγRIIIaS; not shown: C-terminal His-tag
T4 chain: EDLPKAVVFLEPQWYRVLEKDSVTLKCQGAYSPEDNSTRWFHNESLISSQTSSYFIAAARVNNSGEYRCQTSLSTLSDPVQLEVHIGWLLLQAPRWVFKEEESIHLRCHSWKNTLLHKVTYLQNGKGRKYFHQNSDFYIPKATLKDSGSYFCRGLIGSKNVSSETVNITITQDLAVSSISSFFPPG

T5: human FcγRIIaR extracellular domain with C-terminal His-tag (human, UniProt P12318 34-217)
T5 construct: Expressed in FreeStyle 293 cells and purified; also called human FcγRIIa (type R); FcgRIIaR; not shown: C-terminal His-tag
T5 chain: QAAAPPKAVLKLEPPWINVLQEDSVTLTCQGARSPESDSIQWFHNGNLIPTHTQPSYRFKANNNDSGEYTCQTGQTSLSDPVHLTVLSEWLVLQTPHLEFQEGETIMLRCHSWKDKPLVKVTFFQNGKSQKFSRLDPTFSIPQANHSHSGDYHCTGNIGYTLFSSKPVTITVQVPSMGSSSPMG

T6: human FcγRIIb extracellular domain with C-terminal His-tag (human, UniProt P31994 43-217)
T6 construct: Expressed in FreeStyle 293 cells and purified; also called humanFcgRIIb; not shown: C-terminal His-tag
T6 sequence: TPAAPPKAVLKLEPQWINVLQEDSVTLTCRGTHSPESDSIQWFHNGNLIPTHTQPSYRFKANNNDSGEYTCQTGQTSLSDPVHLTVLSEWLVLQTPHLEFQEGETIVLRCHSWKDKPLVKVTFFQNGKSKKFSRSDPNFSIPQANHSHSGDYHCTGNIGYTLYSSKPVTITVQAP

B1: MS_M103205H795-SG1/M103202L889-SK1 (antibody, human IgG1, kappa)
heavy: not shown
light: DIVMTQSPATLSLSPGERATLSCTSSQSVYHANWLSWFQQKPGQPPKLLIYWASTLAYGVPSRFSGSGSGTDFTLTISSLQPEDAATYYCAGGYGGGRYAFGQGTKVEIKRTVAAPSVFIFPPSDEQLKSGTASVVCLLNNFYPREAKVQWKVDNALQSGNSQESVTEQDSKDSTYSLSSTLTLSKADYEKHKVYACEVTHQGLSSPVTKSFNRGEC
notes: Parent antibody with SG1 human heavy chain constant region; also called MS1032LO06-SG1
B2: M103205H795-MY351 / M103202L889-SK1 (antibody, human IgG1, kappa)
heavy: QVTLKESGPVLVKPTETLTLTCTVSGIDLSHDDISWVRQAPGKGLEWVGIISYAGSTYYASWAKGRLTISKDTSKNQVVLTMTNMDPVDTATYYCARGVPAYSHGGDLWGQGTLVTVSSASTKGPSVFPLAPSSKSTSGGTAALGCLVKDYFPEPVTVSWNSGALTSGVHTFPAVLQSSGLYSLSSVVTVPSSSLGTQTYICNVNHKPSNTKVDKKVEPKSCDKTHTCPPCPAPELLNGPSVFLFPPKPKDTLMISRTPEVTCVVVDVSDEDPEVKFNWYVDGVEVHNAKTKPREEQYNSTYRVVSVLTVLHRDWLNGKEYKCKVSNKALPKPIEKTISKAKGQPREPQVYTLPPSREEMTKNQVSLTCLVKGFYPSDIAVEWESNGQPENNYKTTPPVLDSDGSFFLYSKLTVKKSRWQQGNVFSCSVMHEALHNHYTQKSLSLSP
light: B1 light
notes: CH with G236N/H268D/Q311R/A330K/D413K against SG1 (EU numbering); also called MS1032LO06-MY351
B3: M103205H795-MY344 / M103202L889-SK1 (antibody, human IgG1, kappa)
heavy: B2 heavy with Q297L
light: B1 light
notes: CH with G236N/H268D/Q295L/Q311R/A330K/D413K against SG1 (EU numbering); also called MS1032LO06-MY344
B4: M103205H795-MY205 / M103202L889-SK1 (antibody, human IgG1, kappa)
heavy: B2 heavy with Q297L, R313Q, K415D
light: B1 light
notes: CH with G236N/H268D/Q295L/A330K against SG1 (EU numbering); also called MS1032LO06-MY205
B5: M103205H795-PK2 / M103202L889-SK1 (antibody, human IgG1, kappa)
heavy: B2 heavy with D270E, R313Q, P398M, S402R
light: B1 light
notes: CH with G236N/H268E/A330K/P396M/S400R/D413K against SG1 (EU numbering); also called MS1032LO06-PK2; MS103205H795-PK2
B6: M103205H795-MY101 / M103202L889-SK1 (antibody, human IgG1, kappa)
heavy: B2 heavy with D270E, R313Q, P398M, K415D
light: B1 light
notes: CH with G236N/H268E/A330K/P396M against SG1 (EU numbering); also called MS1032LO06-MY101
B7: M103205H795-MY335 / M103202L889-SK1 (antibody, human IgG1, kappa)
heavy: B2 heavy with N238T
light: B1 light
notes: CH with G236T/H268D/Q311R/A330K/D413K against SG1 (EU numbering); also called MS1032LO06-MY335
B8: M103205H795-MY201 / M103202L889-SK1 (antibody, human IgG1, kappa)
heavy: B2 heavy with R313Q, K415D
light: B1 light
notes: CH with G236N/H268D/A330K against SG1 (EU numbering); also called MS1032LO06-MY201
B9: MS_M103205H795-SG1/M103202L889-SK1 (antibody, human IgG1, kappa)
heavy: not shown
light: B1 light
notes: Anti-latent myostatin IgG; also called MS1032LO06-SG1
B10: M103205H795-MY168 / M103202L889-SK1 (antibody, human IgG1, kappa)
heavy: B2 heavy with D270E, R313Q, K332A, P398A, K415D
light: B1 light
notes: Position 396 variant derived from MY052, expressed with M103202L889-SK1 as light chain
B11: M103205H795-MY170 / M103202L889-SK1 (antibody, human IgG1, kappa)
heavy: B2 heavy with D270E, R313Q, K332A, P398E, K415D
light: B1 light
notes: as for B10
B12: M103205H795-MY169 / M103202L889-SK1 (antibody, human IgG1, kappa)
heavy: B2 heavy with D270E, R313Q, K332A, P398D, K415D
light: B1 light
notes: as for B10
B13: M103205H795-MY171 / M103202L889-SK1 (antibody, human IgG1, kappa)
heavy: B2 heavy with D270E, R313Q, K332A, P398F, K415D
light: B1 light
notes: as for B10
B14: M103205H795-MY052 / M103202L889-SK1 (antibody, human IgG1, kappa)
heavy: B2 heavy with D270E, R313Q, K332A, P398M, K415D
light: B1 light
notes: Fc variant of M103205H795-SG1, expressed with M103202L889-SK1 as light chain; parent of the position 396 variants

Target: T1, cynomolgus monkey FcγRIIa2 …
Assay: SPR (BIACORE), antibody captured, FcγR analyte
Method: (§1) The kinetic analysis of interactions between these antibodies and FcγR was carried out using BIACORE® T200 or BIACORE® 4000 (GE Healthcare). HBS-EP+ (GE Healthcare) was used as the running buffer, and the measurement temperature was set to 25° C. A chip produced by immobilizing Protein A. Protein A/G or mouse anti-human IgG kappa light chain (BD Biosciences) onto a Series S Sensor Chip CM4 or CM5 (GE Healthcare) by the amine-coupling method was used. […] After the measurement, the antibody captured on the chip was washed off by allowing reaction with 10 mM glycine-HCl, pH1.5 and 25 mM NaOH so that the chip was regenerated and used repeatedly. The sensorgrams obtained as measurement results were analyzed by the 1:1 Langmuir binding model using the BIACORE® Evaluation Software to calculate the binding rate constant ka (L/mol/s) and dissociation rate constant kd (l/s), and the dissociation constant KD (mol/L) was calculated from these values. […] Regarding such interactions, KD values were calculated using the following 1:1 binding model described in BIACORE® T100 Software Handbook BR1006-48 Edition AE.
(§2) The behavior of interacting molecules according to the 1:1 binding model on BIACORE® can be described by Equation 1: Req=C·R max/(KD+C)+RI, wherein, Req is a plot of steady-state binding levels to analyte concentration. C is concentration, RI is bulk refractive index contribution in the sample, and Rmax is analyte binding capacity of the surface. When this equation is rearranged, KD can be expressed as Equation 2: KD=C·Rmax/(Req−RI)−C. KD can be calculated by substituting the values of Rmax, RI, and C into Equation 1 or Equation 2. From the current measurement conditions, RI=0, C=2 μmol/L can be used.

Row | Kd | Binder
1 | 5100 nM | B1
2 | 760 nM | B2
3 | 1100 nM | B3
4 | 1100 nM | B4
5 | 1300 nM | B5
6 | 1200 nM | B6
7 | 1700 nM | B7
8 | 1400 nM | B8

Target: T2, cynomolgus monkey FcγRIIa3 …
Assay: SPR (BIACORE), antibody captured, FcγR analyte
Method: as §1, §2

Row | Kd | Binder
9 | 1700 nM | B1
10 | 1900 nM | B2
11 | 2200 nM | B3
12 | 3000 nM | B4
13 | 3800 nM | B5
14 | 3600 nM | B6
15 | 2700 nM | B7
16 | 3900 nM | B8

Target: T3, cynomolgus monkey FcγRIIb extracellular …
Assay: SPR (BIACORE), antibody captured, FcγR analyte
Method: as §1, §2

Row | Kd | Binder
17 | 1800 nM | B1
18 | 350 nM | B2
19 | 310 nM | B3
20 | 250 nM | B4
21 | 380 nM | B5
22 | 350 nM | B6
23 | 650 nM | B7
24 | 430 nM | B8

Each binder was assayed against T7, human FcγRIIIaV extracellular domain, C-terminal His-tag (human, UniProt P08637 17-208) (assay: SPR (BIACORE), antibody captured, FcγR analyte).
T7 construct: also called FcgRIIIaV; not shown: His-tag added to C-terminus
T7 sequence (P08637 17-208 F176V): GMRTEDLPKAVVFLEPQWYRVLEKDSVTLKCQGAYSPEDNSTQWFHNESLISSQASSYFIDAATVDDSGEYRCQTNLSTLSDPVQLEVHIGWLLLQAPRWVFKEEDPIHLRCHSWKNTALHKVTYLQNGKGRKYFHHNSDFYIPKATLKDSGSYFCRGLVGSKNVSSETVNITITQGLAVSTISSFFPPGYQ
Method: as §1, §2

Row | Kd | Binder
25 | 810 nM | B1
26 | 14000 nM | B2
27 | 19000 nM | B3
28 | 13000 nM | B4
29 | 13000 nM | B5
30 | 11000 nM | B6
31 | 5000 nM | B7
32 | 24000 nM | B8

Target: T4, cynomolgus monkey FcγRIIIaS …
Assay: SPR (Biacore), antibody captured on chip, FcgR extracellular domain as analyte, 25 C
Method: as §1
(§3) The resultant variants were expressed using M103202L889-SK1 as light chain and their affinity to human and cynoFcγRs were evaluated (Table 20).

Row | Kd | Binder
33 | 360 nM | B9
34 | 4500 nM | B10
35 | 2900 nM | B11
36 | 3500 nM | B12
37 | 3500 nM | B13
38 | 1500 nM | B14

Target: T5, human FcγRIIaR extracellular domain …
Assay: as above
Method: as §1, §3

Row | Kd | Binder
39 | 1100 nM | B9
40 | 2300 nM | B10
41 | 2500 nM | B11
42 | 2500 nM | B12
43 | 2100 nM | B13
44 | 1400 nM | B14

What follows are binders tested against T6, human FcγRIIb extracellular domain with … in the same assay as above.
Method: as §1, §3

Row | Kd | Binder
45 | 4600 nM | B9
46 | 1700 nM | B10
47 | 1600 nM | B11
48 | 1300 nM | B12
49 | 12000 nM | B13
50 | 720 nM | B14

Each binder was assayed against T8, human FcγRIIIaV extracellular domain with C-terminal His-tag (human, UniProt P08637 17-208) in the same assay as above.
T8 construct: Expressed in FreeStyle 293 cells and purified; also called FcgRIIIaV; not shown: C-terminal His-tag
T8 sequence (P08637 17-208 F176V): as above
Method: as §1, §3

Row | Kd | Binder
51 | 810 nM | B9
52 | 8100 nM | B10
53 | 6300 nM | B11
54 | 6200 nM | B12
55 | 5900 nM | B13
56 | 1500 nM | B14

Reference: patent publication US20200317768A1 (published 2020)
